Biological target: papain (cysteine protease) (UniProt P00784)
Experiment: cell-based or functional assay

Sequence of UniProt P00784 (P00784 134-345 limits assumed): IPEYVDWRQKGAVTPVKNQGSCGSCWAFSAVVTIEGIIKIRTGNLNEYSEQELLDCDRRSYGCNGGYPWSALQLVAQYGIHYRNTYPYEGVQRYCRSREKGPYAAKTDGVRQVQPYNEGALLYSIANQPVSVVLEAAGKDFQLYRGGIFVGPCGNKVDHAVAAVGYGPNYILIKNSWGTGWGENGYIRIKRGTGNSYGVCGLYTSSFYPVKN

“recombinant CeCPI protein (taro cysteine protease inhibitor, tarocystatin)” was tested, and the residual protease activity of papain on 0.1% gelatin/SDS-PAGE was 100.
